Experiment: yeast display, Sf9 membrane polyspecificity reagent, FACS + sequencing; frameworks hold sequencing errors
How it was run: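 Galactose induction of a Saccharomyces cerevisiae BJ5465 synthetic nanobody display library ran 36–48 hours. The cells were then stained for 1 hour at 4 °C with 10% biotinylated, detergent-solubilized Sf9 membrane reagent, pulled down on streptavidin microbeads and FACS-sorted into low and high (top ~1%) gates on expression and reagent-binding fluorescence. Labels for polyreactivity follow the gate of origin.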

Sequence	polyreactivity (PSR sort gate)
QFQLVESGGGLVQAGGSLRLSCAASGIIFGRYTMGWYRDAPGKERELVAAITSSGITYYADSVKGRFTISRDNAKNTVYLQMNSLKPEDTAVYYCAADVGYWGRSRGYPSDDYDYWGQGTQVTVSS	low polyreactivity
QFQLVESGGGLVQAGGSLRLSCAASGITFGTNAMGWYRQATGKERELVARISSSDASTYYADSVKGRFTISRDNGKNTVYLQMNSLKPEDTAVYYCAADIYVTGYFRYDYWGQGTQVTVSS	low polyreactivity
QFQLVESGGGLVQAGGSLRLSCAASGITFTFNARGWYRQAPGKERELVAAITWSGGSPFYADSVKGRFTISRDNAKNTVYLQLNSLNPEDTAVYYCARDTELYVRWLDYWGQGTQVTVSS	low polyreactivity
QFQLVESGGGLVQAGGSLRLSCAASGNIFGYYALGWYRQAPGKEREFVAAISGGDSTNYADSVKGRFTNSRDNAKNTVYLQMNSLQPEDTAVYYCARDYWSGASGGYPYDYWGQGTQVTVSS	low polyreactivity
QFQLVESGGGLVQAGGSLRLSCAASGNTFTKYAMGWYRQAPGKDRELLAGITRGGSTNYADSVKGRFTISRDNAKNTVYFQMNSLKPEDTAVYYCNARPVYGSRFYSAVRMEYWGQGTQVTVSS	low polyreactivity
QFQLVESGGGLVQAGGSLRLSCAASGQILPYYAMGWYRQAPGKERELVAAISRTGGRTSYADSVNGRLTISRDNAKNTFYLQMNSLSPEDTAVYYCAAVGQSGGRRYDYWGQGTQVTVSS	high polyreactivity
QFQLVESGGGLVQAGGSLRLSCAASGRIFRVNAKGWYRPAPGKERELVAGITQGDGSTYYADSVKGRFTISRDNAKNTVYLQMNSLKPEDTAVYYCAASTGPDRQFDSWGQGTQVTVSS	low polyreactivity
QFQLVESGGGLVQAGGSLRLSCAASGRIFYLYAMGWYRQAPGKERELVAGITSGGRTNYADSVKGRFTISRDNGKNTVFLQMNSLKPEDSAVYYCAAGSLRYKYDYWGQGTQVTVSS	high polyreactivity
QFQLVESGGGLVQAGGSLRLSCAASGRTFSWSAMGWYRQAPGKERELVAAISASGGRTYYADSVKGRFTISRDNANNSVYLQMNSLKPEDTAVYYCAKVVKKIEFDYWGQGTEVTVSS	high polyreactivity
QFQLVESGGGLVQAGGSLRLSCAASGRTFWSNAMVWYRQAPGKERELVAAISGGARTNYADSVKGRFTISRDNAKNTVYLQMNSLKPEDTEVYFCAATPRYWQSRYDYWGKGTQVTVSS	high polyreactivity
QFQLVESGGGLVQAGGSLRLSCAASGSIFEPYAMGWYRQAPGKETELVATAITYSGGSTYYADSVKGRFTISRDNAKNTVYLQMNSLKPEDTAVYYCAADDWGDGVYKLDYWGQGTQVTVSS	low polyreactivity
QFQLVESGGGLVQAGGSLRLSCAASGSIFGVYVMGWSRQGAGKERELVAAITRGASTNYADSVKGRFTISRDNAKNTVYLQMNSLKPEDTAVYYCAAESGNRYEYWGQGTQVTVSS	low polyreactivity
QFQLVESGGGLVQAGGSLRLSCAASGSIFIPYAMGWYRQAPGKEREFVATITFGAASTYYADSVKGRFTISRDNAKNTVYLQMNSLKREDTAVYYCAAEWRRYEYADSWEYDYWGQGTQVTVSS	low polyreactivity
QFQLVESGGGLVQAGGSLRLSCAASGSIIWWNAMGWYRQAPGKERELVASIGDSTYYADSVKGRFTISRDNAKNTVYLQMNSLKPEDTAVYYCNAEVLNYLVFGYQLGYDYWGQGTQVTVSS	low polyreactivity
QFQLVESGGGLVQAGGSLRLSCAASGSILDGNTMGWYRQAPGKERELVDAISSLATSTYYADSVKGRFTISRDNAKNTVYLQINSLKPEDTAVYYCAALVRRKRTTSGDDYWGQGTQVTVSS	high polyreactivity
QFQLVESGGGLVQAGGSLRLSCAASGSIYRLNTMGWYRQAPGKERELVAAMSRRGGSTYYADSVKGRFTISRDNAKNTVYIQMNSLKPEDTAVYYCSADVTSFRHAPGYEYWGQGTQVTVSS	high polyreactivity

Sequence	polyreactivity (PSR sort gate)
QFQLVESGGGLVQAGGSLRLSCAASGSTFIGYAMGWYRQAPGKERELVAAITGGGRTNYADSVKGRFTISRDNAKNTVYLQMNSLKPEDTAVYYCAARGVSRGYAKPYYSRGDYWGQGTQVTVSS	low polyreactivity
QFQLVESGGGLVQAGGSLRLSCAASGSTFIYNTMGWYRQAPGKERELVATIRRSGGITYYADSVKGRFTISRDNAKNTVYLQMNSLKPEDTAVYYCNAKPNRYSAKIVQYDSWGQGTQVTVSS	low polyreactivity
QFQLVESGGGLVQAGGSLRLSCAASGSTFKYYAKGWYRQAPGKERELVAAISARTGSTYYADSVKGRFTISRDNEKNTVYLQMNILKPEDTAVYYCNKLTWRGEVDYWGQGTQVTESS	high polyreactivity
QFQLVESGGGLVQAGGSLRLSCAASGSTFRGYTMGWYRQAPGKERELVAAIRSTTGRTYYADSVKGRFTISRENAKNTVYLQMNSLKPEDTAVYYCNKAYPREYYYWGQGTQVTVSS	high polyreactivity
QFQLVESGGGLVQAGGSLRLSCAASGSTFYTTDMGWYRQAPGKERELVASITSAGNTNYADSVKGRFTISRDNAKNSVYLQMNSLKPEDTAVYYYYYYQYDYWGQGTQVTVSS	low polyreactivity
QFQLVESGGGLVQAGGSLRLSCAASGSTSYRNAMGWYRQAPGKEREFVAAISWSGGSTYYADSVKGRFTISRDNAKNTVYLQMNSLKPEDTADYYSNADAYGTPEFTSYAVRYDYWGQGTQVTVSS	low polyreactivity
QFQLVESGGGLVQAGGSLRLSCAASGYIFVRYTMGWYRQAPGKERELVAAISWGGGSTYYADSVKGLFTISRDNAKNTVYLQMNSLKPEDTAVYYCNNRYIQLYDYWGQGTQVTVSS	low polyreactivity
QFQLVESGGGLVQAGGSLRLSCAASGYIFYGYVMGWYRQAPGKERELVAGITYSGGGGTHYADSVNGRFTISRDNAKNTVYLQMNSLKPEDTAVYYCAKADPQLNRTYYSYGMDYWGHGTQVTVSS	low polyreactivity
QFQLVESGGGLVQAGGSLRLSCAASGYTFRYYSMGWYRQATGKERELVAAISRSGGSTYYADSVKGRFTISRDYAKNTVYLQMYSLKPEDTAVYYCAADYSYRTRGNRYRLDYWGQGTQVTVSS	high polyreactivity
QFQLVESGGGLVQAGGSLRLSCAASGYTLEYNAMGWYRQAPGKDRELGARIRWSGSSTYYADSVKGRFTISRDNAKNTVYLQMNSLKPEDTAVYYCATRYRRWKYDYWGQGTQVTVSS	high polyreactivity
QFQLVESGGGLVQAGGSLRLSCAASRYTFTLYAMGCYRQAPGKVRELVAAISWSSGSTYYADSVKGRFTISRDNEKNTVYLQMNSLKPEDTAVYYCNARRFGLTQYYYWGQGTQVTVSS	low polyreactivity
QFQLVESGGGLVQAGGSLRLSCAATGRIFYKYAMGWYRQAPRKETELVAAISSSGGRTYYADSVKGRFTISRDNAKNTVYLQMNSLKPEDSAVYYCGARIHYPSLPYDYWGQGTQVTVSS	low polyreactivity
QFQLVESGGGLVQAGGSLRLSCAPSGGTFGSNAMGWYRQAPGKERELVAAISTTGGTTYYADSVKGRFTISRDNAKNTVYLQMNSLKPEDTAVYYCAKDGYVYGDWYTYAYVYWGQGTQVTVSS	low polyreactivity
QFQLVESGGGLVQAGGSLRLSCPAYGSNLSRYAMGWYRQSPGKVRELVATITRRGGSTFYADSVKGRFTISRDNAKNTVYLQMNSLKPDDTADYYCAVGRLFWGQGTQVTVSS	low polyreactivity
QFQLVESGGGLVQAGGSLRLSSAASGFIFAHNAMGWYRQAPGKERELVDAITSSGGSTYYADSVKGRFSISRDNAKNTVYLQMNSLKPEDTAVYYCNAYTYARRGYDYWGQGTQVTVSS	high polyreactivity
QFQLVESGGGLVQAGGSLRLSSAASGRTFLSYTMVWYRQAPGKERQFVAAITTSGGSTNYADSVKGRFTISRDNAKNTVYLQMNSLKAEDTAVYYCADEWSVYFYDPRSDYWGQGNQVTVSS	high polyreactivity

From the nanobody polyreactivity screen of Harvey et al. (2022)
